Data taken from IntAct's records for PubMed 14681217.

B1: Integrin beta-7 (Homo sapiens), P26010 (parent)
chain: MVALPMVLVLLLVLSRGESELDAKIPSTGDATEWRNPHLSMLGSCQPAPSCQKCILSHPSCAWCKQLNFTASGEAEARRCARREELLARGCPLEELEEPRGQQEVLQDQPLSQGARGEGATQLAPQRVRVTLRPGEPQQLQVRFLRAEGYPVDLYYLMDLSYSMKDDLERVRQLGHALLVRLQEVTHSVRIGFGSFVDKTVLPFVSTVPSKLRHPCPTRLERCQSPFSFHHVLSLTGDAQAFEREVGRQSVSGNLDSPEGGFDAILQAALCQEQIGWRNVSRLLVFTSDDTFHTAGDGKLGGIFMPSDGHCHLDSNGLYSRSTEFDYPSVGQVAQALSAANIQPIFAVTSAALPVYQELSKLIPKSAVGELSEDSSNVVQLIMDAYNSLSSTVTLEHSSLPPGVHISYESQCEGPEKREGKAEDRGQCNHVRINQTVTFWVSLQATHCLPEPHLLRLRALGFSEELIVELHTLCDCNCSDTQPQAPHCSDGQGHLQCGVCSCAPGRLGRLCECSVAELSSPDLESGCRAPNGTGPLCSGKGHCQCGRCSCSGQSSGHLCECDDASCERHEGILCGGFGRCQCGVCHCHANRTGRACECSGDMDSCISPEGGLCSGHGRCKCNRCQCLDGYYGALCDQCPGCKTPCERHRDCAECGAFRTGPLATNCSTACAHTNVTLALAPILDDGWCKERTLDNQLFFFLVEDDARGTVVLRVRPQEKGADHTQAIVLGCVGGIVAVGLGLVLAYRLSVEIYDRREYSRFEKEQQQLNWKQDSNPLYKSAITTTINPRFQEADSPTL

Variants of: B1
Settings: with ita4_human ITGA4, P13612
ita4_human ITGA4, P13612, sequence (P13612 whole entry): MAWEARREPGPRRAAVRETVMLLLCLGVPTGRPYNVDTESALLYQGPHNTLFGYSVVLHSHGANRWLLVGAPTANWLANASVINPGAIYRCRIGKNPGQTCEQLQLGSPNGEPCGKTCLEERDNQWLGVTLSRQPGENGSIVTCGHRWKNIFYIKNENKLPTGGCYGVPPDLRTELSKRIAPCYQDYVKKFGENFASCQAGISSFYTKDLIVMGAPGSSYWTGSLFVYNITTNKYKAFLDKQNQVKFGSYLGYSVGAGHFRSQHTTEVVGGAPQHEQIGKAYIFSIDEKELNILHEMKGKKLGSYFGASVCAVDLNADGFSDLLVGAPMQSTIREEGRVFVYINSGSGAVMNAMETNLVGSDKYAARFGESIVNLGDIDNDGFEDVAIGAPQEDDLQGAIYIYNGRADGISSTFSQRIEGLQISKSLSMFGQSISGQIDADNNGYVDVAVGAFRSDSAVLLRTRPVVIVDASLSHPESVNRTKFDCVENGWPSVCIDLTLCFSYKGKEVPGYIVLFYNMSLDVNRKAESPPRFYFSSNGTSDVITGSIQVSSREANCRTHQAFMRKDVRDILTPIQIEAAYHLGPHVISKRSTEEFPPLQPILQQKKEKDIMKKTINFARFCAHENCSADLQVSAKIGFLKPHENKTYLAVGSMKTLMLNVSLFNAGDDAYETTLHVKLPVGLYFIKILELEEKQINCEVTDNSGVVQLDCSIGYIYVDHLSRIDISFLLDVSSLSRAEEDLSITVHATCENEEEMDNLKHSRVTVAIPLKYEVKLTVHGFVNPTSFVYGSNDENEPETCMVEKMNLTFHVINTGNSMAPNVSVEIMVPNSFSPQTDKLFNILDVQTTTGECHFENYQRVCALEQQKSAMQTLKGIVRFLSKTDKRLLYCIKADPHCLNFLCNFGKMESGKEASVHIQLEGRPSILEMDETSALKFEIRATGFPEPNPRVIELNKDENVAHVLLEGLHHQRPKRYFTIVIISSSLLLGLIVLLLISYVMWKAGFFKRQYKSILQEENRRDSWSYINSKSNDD

| effect of a mutation on the interaction | Variant |
| --- | --- |
| decreasing interaction | G730I |
| decreasing interaction | G734I |
